According to US20190064177A1, “INCORPORATING COMPETITIVE BINDING INFORMATION INTO MOLECULAR ARRAY ANALYSIS TO GENERATE FUNCTION NETWORKS OF INTERACTIONS” (ARIZONA BOARD OF REGENTS ON BEHALF OF ARIZONA STATE …, priority 2017, published 2019):

Legend:
Diaphorase [1] = assay: peptide array, 10 uM labeled diaphorase, with FAD
Diaphorase [2] = assay: peptide array, 1 uM labeled diaphorase, with FAD
Diaphorase [3] = assay: peptide array, 1 uM diaphorase, binding without FAD / with FAD
Diaphorase [4] = assay: peptide array, 1 uM labeled diaphorase, no FAD
Diaphorase [5] = assay: peptide array, 10 uM diaphorase, binding without FAD / with FAD
Diaphorase [6] = assay: peptide array, 10 uM labeled diaphorase, no FAD
Diaphorase [7] = assay: peptide array, 1 uM diaphorase, measured binding without FAD / with FAD

Binder	fluorescence (Diaphorase [1])	fluorescence (Diaphorase [2])	noFAD/FAD (Diaphorase [3])	fluorescence (Diaphorase [4])	noFAD/FAD (Diaphorase [5])	fluorescence (Diaphorase [6])	Meas. ratio (noFAD/FAD) (Diaphorase [7])
FQFGKVVSDGSG	20200	2470	0.637	1570	0.631	12700	
PRFNWKPYGGSG							2.44
RWYKNGGSG	46300	3660	2.78	10200	1.4	64800	
YRWGAKHYGGSG							2.06
FGKLYQLYNDGSG	34200	3050	0.627	1910	0.46	15700	
FLQFLGGSG							0.87
WRLNPLQFGGSG							2.54
VFGVLSQVARDGSG	51500	6640	0.64	4250	0.509	26200	
YQRHQNVFAKSGG							2.56
PQKSNHFHEAQKR							2.41
ALDKLSGLWKHVG							0.69
YRRPWKFRDGSG							1.74
RYNLYKPSDGSG	18200	1250	2.87	3570	2.77	50300	
NVSDLSQFYLSGSG	27800	3440	0.624	2140	0.242	6740	
PVDFGYQLKVSGS							0.66
PVPWRHVNYAHSG							0.69
YWRFYANWAQLFG							2.56
WRSVYVPNGGSG							2.35
WHLLGWVGYGGSG							0.7
GYHLFEKLYFDGS							0.7

Binder	fluorescence (Diaphorase [1])	fluorescence (Diaphorase [2])	noFAD/FAD (Diaphorase [3])	fluorescence (Diaphorase [4])	noFAD/FAD (Diaphorase [5])	fluorescence (Diaphorase [6])	Meas. ratio (noFAD/FAD) (Diaphorase [7])
RQRYPKVSGGSG							1.71
LKQLFLEGGSG	23500	2470	0.63	1560	0.369	8700	
ARWQQYKFGGSG							2.18
KHSFQKELGGSG	300	728	2.87	2090	0.794	2390	
WRPFWKNLGGSG							2.18
WLDLGVFPYQHLGSG	33600	3430	0.641	2200	0.765	25700	
VVQALFDGSG	21200	2300	0.637	1470	0.448	9480	
WRVQAWRPNKVEG							2.43
YRRFPYFPGGSG							1.6
RFGQNLPLGGSG	34700	2100	2.76	5800	1.83	63500	
NRKFYWNAGGSG							2.1
YRGAGKNKGGSG							1.49
RVLPYHGWKWFSG							2.45
KEDKVFGFRFDGS							0.7
LFDNVLEFVEDGS							0.69
NHLLEGAFVSEGS							0.77
AQVAVDGFYVDGSG	22700	3090	0.652	2010	0.555	12600	
YRYGWQKYGGSG							2.43
SGVLQFFGGSG							0.7
YRFAQYKGQKDGSG	19900	1600	2.78	4470	2.86	56900	
